Test results from paper PMC3422223 (PLoS ONE, 2012).

Experiments:
CCL4 [1] = molecular target: T1, CCL4 (Homo sapiens, UniProt P13236, biotin (sulfo-NHS-LC-biotin) in the Biacore and streptavidin-plate ELISA experiments; not biotinylated where coated directly); assay: cell-based or functional assay
CCL3 [2] = molecular target: T2, CCL3 (Homo sapiens, UniProt P10147, biotin (sulfo-NHS-LC-biotin) in the Biacore and streptavidin-plate ELISA experiments; not biotinylated where coated directly); assay: cell-based or functional assay
T2 sequence (P10147 24-92): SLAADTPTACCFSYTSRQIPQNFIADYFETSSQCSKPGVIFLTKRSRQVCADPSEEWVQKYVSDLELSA

CCL5 [3] = molecular target: T3, CCL5 (Homo sapiens, UniProt P13501, biotin (sulfo-NHS-LC-biotin) in the Biacore and streptavidin-plate ELISA experiments; not biotinylated where coated directly); assay: cell-based or functional assay
T3 sequence (P13501 24-91): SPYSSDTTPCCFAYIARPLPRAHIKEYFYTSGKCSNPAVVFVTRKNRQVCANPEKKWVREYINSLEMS

CCL4 [4] = molecular target: T1, CCL4; assay: SPR; Biacore 2000; biotinylated CCL3, CCL4, CCL5 immobilised on a streptavidin chip (~100 RU); Fabs flowed over at 500 pM to 1 µM; regeneration 10 mM glycine pH 1.5; triplicate; 1:1 Langmuir fit, murine and humanized 18V4F Fabs fit to a steady state model; settings: both partners purified
CCL3 [5] = molecular target: T2, CCL3; assay: as above; settings: both partners purified
CCL5 [6] = molecular target: T3, CCL5; assay: as above; settings: both partners purified

T1 sequence (P13236 24-92): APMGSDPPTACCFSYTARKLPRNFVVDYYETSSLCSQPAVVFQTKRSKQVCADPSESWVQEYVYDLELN

B1: 18V4F Fab variant d7 (Fab, V domains shown)
VH: EVQLVESGGGLVQPGGSLRLSCAASGFSLYDEGAHWVRQAPGKGLEWVGVIWPGGGTNYNSALMSRFTISKDNSKNTVYLQMNSLRAEDTAVYYCARGPLITTEVSMDYWGQGTLVTVSS
VL: SAEVTQPPSVSVSPGQTARITCSSNTGAVTTSNYANWVQQKPGQAPVGLIGGTNERPSGIPERFSGSSSGNTATLTISGAQAEDEADYYCALWYSNHWVFGGGTKLTVL
IC50 of inhibition of chemotaxis of CCR5-transfected Ba/F3 cells to 5 ng/mL CCL4 (blocks CCL4 with CCR5) (CCL4 [1]): 0.6 nM | IC50 of inhibition of chemotaxis of CCR5-transfected Ba/F3 cells to 5 ng/mL CCL3 (blocks CCL3 with CCR5) (CCL3 [2]): 18 nM | IC50 of inhibition of chemotaxis of CCR5-transfected Ba/F3 cells to 5 ng/mL CCL5 (blocks CCL5 with CCR5) (CCL5 [3]): 4.1 nM | Kd (CCL4 [4]): 7.3 nM | koff (CCL4 [4]): 0.0004 s⁻¹ | kon (CCL4 [4]): 60000 M⁻¹ s⁻¹ | Kd (CCL3 [5]): 35 nM | koff (CCL3 [5]): 0.0033 s⁻¹ | kon (CCL3 [5]): 110000 M⁻¹ s⁻¹

B2: 18V4F Fab variant d5 (Fab, V domains shown)
VH: EVQLVESGGGLVQPGGSLRLSCAASGFSLTGYAMHWVRQAPGKGLEWVGVIWPGGGTNYNSALMSRFTISKDNSKNTVYLQMNSLRAEDTAVYYCARGPLITTEVSMDYWGQGTLVTVSS
VL: SAEVTQPPSVSVSPGQTARITCSSNTPLRPYRNYANWVQQKPGQAPVGLIGGTNERPSGIPERFSGSSSGNTATLTISGAQAEDEADYYCALWYSNHWVFGGGTKLTVL
IC50 of inhibition of chemotaxis of CCR5-transfected Ba/F3 cells to 5 ng/mL CCL4 (blocks CCL4 with CCR5) (CCL4 [1]): 49 nM | IC50 of inhibition of chemotaxis of CCR5-transfected Ba/F3 cells to 5 ng/mL CCL3 (blocks CCL3 with CCR5) (CCL3 [2]): 187 nM | IC50 of inhibition of chemotaxis of CCR5-transfected Ba/F3 cells to 5 ng/mL CCL5 (blocks CCL5 with CCR5) (CCL5 [3]): 105 nM | Kd (CCL4 [4]): 15.9 nM | koff (CCL4 [4]): 0.0012 s⁻¹ | kon (CCL4 [4]): 70000 M⁻¹ s⁻¹ | Kd (CCL3 [5]): 30.4 nM | koff (CCL3 [5]): 0.0031 s⁻¹ | kon (CCL3 [5]): 100000 M⁻¹ s⁻¹ | Kd (CCL5 [6]): 5.5 nM | koff (CCL5 [6]): 0.0014 s⁻¹ | kon (CCL5 [6]): 340000 M⁻¹ s⁻¹

B3: humanized 18V4F Fab (Fab, V domains shown)
VH: EVQLVESGGGLVQPGGSLRLSCAASGFSLTGYAMHWVRQAPGKGLEWVGVIWPGGGTNYNSALMSRFTISKDNSKNTVYLQMNSLRAEDTAVYYCARGPLITTEVSMDYWGQGTLVTVSS
VL: SAEVTQPPSVSVSPGQTARITCSSNTGAVTTSNYANWVQQKPGQAPVGLIGGTNERPSGIPERFSGSSSGNTATLTISGAQAEDEADYYCALWYSNHWVFGGGTKLTVL
notes: also called Hu-18V4F
IC50 of inhibition of chemotaxis of CCR5-transfected Ba/F3 cells to 5 ng/mL CCL4 (blocks CCL4 with CCR5) (CCL4 [1]): > 1000 nM | IC50 of inhibition of chemotaxis of CCR5-transfected Ba/F3 cells to 5 ng/mL CCL3 (blocks CCL3 with CCR5) (CCL3 [2]): > 1000 nM | IC50 of inhibition of chemotaxis of CCR5-transfected Ba/F3 cells to 5 ng/mL CCL5 (blocks CCL5 with CCR5) (CCL5 [3]): > 1000 nM | Kd (CCL4 [4]): 251 nM | Kd (CCL3 [5]): 272 nM | Kd (CCL5 [6]): 187 nM

B4: d5d7 Fab (Fab, V domains shown)
VH: EVQLVESGGGLVQPGGSLRLSCAASGFSLYDEGAHWVRQAPGKGLEWVGVIWPGGGTNYNSALMSRFTISKDNSKNTVYLQMNSLRAEDTAVYYCARGPLITTEVSMDYWGQGTLVTVSS
VL: SAEVTQPPSVSVSPGQTARITCSSNTPLRPYRNYANWVQQKPGQAPVGLIGGTNERPSGIPERFSGSSSGNTATLTISGAQAEDEADYYCALWYSNHWVFGGGTKLTVL
notes: also called 18V4F Fab variant d5d7; not shown: His6, C-terminal, kept
IC50 of inhibition of chemotaxis of CCR5-transfected Ba/F3 cells to 5 ng/mL CCL4 (blocks CCL4 with CCR5) (CCL4 [1]): 0.2 nM | IC50 of inhibition of chemotaxis of CCR5-transfected Ba/F3 cells to 5 ng/mL CCL3 (blocks CCL3 with CCR5) (CCL3 [2]): 1 nM | IC50 of inhibition of chemotaxis of CCR5-transfected Ba/F3 cells to 5 ng/mL CCL5 (blocks CCL5 with CCR5) (CCL5 [3]): 0.9 nM | Kd (CCL4 [4]): 1.8 nM | koff (CCL4 [4]): 0.0036 s⁻¹ | kon (CCL4 [4]): 380000 M⁻¹ s⁻¹ | Kd (CCL3 [5]): 8.5 nM | koff (CCL3 [5]): 0.0054 s⁻¹ | kon (CCL3 [5]): 80000 M⁻¹ s⁻¹

B5: 18V4F hybridoma antibody (murine IgG2a/lambda) (antibody, V domains shown)
VH: QVQLKESGPGLVAPSQSLSITCTVSGFSLTGYGIHWVRQPPGKGLEWLGVIWPGGGTNYNSALMSRLSISKDNSKSQVFLKMNSLQTDDTAMYYCARGPLITTEVSMDYWGQGTSVTVSS
VL: QAVVTQESALTTSPGETVTLTCRSNTGAVTTSNYANWVQEKPDHLFTGLIGGTNNRAPGVPARFSGSLIGDKAALTITGAQTEDEAIYFCALWYSNHWVFGGGTKLTVL
IC50 of inhibition of chemotaxis of CCR5-transfected Ba/F3 cells to 5 ng/mL CCL4 (blocks CCL4 with CCR5) (CCL4 [1]): 185 nM | IC50 of inhibition of chemotaxis of CCR5-transfected Ba/F3 cells to 5 ng/mL CCL3 (blocks CCL3 with CCR5) (CCL3 [2]): 196 nM | IC50 of inhibition of chemotaxis of CCR5-transfected Ba/F3 cells to 5 ng/mL CCL5 (blocks CCL5 with CCR5) (CCL5 [3]): > 1000 nM

B6: murine 18V4F Fab (Fab, V domains shown)
VH: QVQLKESGPGLVAPSQSLSITCTVSGFSLTGYGIHWVRQPPGKGLEWLGVIWPGGGTNYNSALMSRLSISKDNSKSQVFLKMNSLQTDDTAMYYCARGPLITTEVSMDYWGQGTSVTVSS
VL: QAVVTQESALTTSPGETVTLTCRSNTGAVTTSNYANWVQEKPDHLFTGLIGGTNNRAPGVPARFSGSLIGDKAALTITGAQTEDEAIYFCALWYSNHWVFGGGTKLTVL
notes: also called Mu-18V4F
Kd (CCL4 [4]): 103 nM | Kd (CCL3 [5]): 209 nM | Kd (CCL5 [6]): 50.3 nM
